Values of other authors, collected in US20220323445A1, “REDUCING IMMUNOGENICITY TO PEGLOTICASE” (Horizon Therapeutics Ireland DAC, priority 2020, published 2022).
“And” between values parts separate entries of the source, which are not always exact repeats. Identical values can stand only once.

Experiments:
[1] = test system: patients with chronic gout; conditions: cited from earlier work
[2] = test system: plasma urate; conditions: doses of 4 to 12 mg; within 24 to 72 hours; from 11.1±0.6 mg/dL; cited from earlier work
[3] = test system: anti-pegloticase antibodies; conditions: cited from earlier work
[4] = test system: serum uric acid (sUA); conditions: cited from earlier work

B1: pegloticase (protein)
chain: TYKKNDEVEFVRTGYGKDMIKVLHIQRDGKYHSIKEVATTVQLTLSSKKDYLHGDNSDVIPTDTIKNTVNVLAKFKGIKSIETFAVTICEHFLSSFKHVIRAQVYVEEVPWKRFEKNGVKHVHAFIYTPTGTHFCEVEQIRNGPPVIHSGIKDLKVLKTTQSGFEGFIKDQFTTLPEVKDRCFATQVYCKWRYHQGRDVDFEATWDTVRSIVLQKFAGPYDKGEYSPSVQKTLYDIQVLTLGQVPEIEDMEISLPNIHYLNIDMSKMGLINKEEVLLPLDNPYGKITGTVKRKLSSRL
modifications: monomethoxy PEG conjugated; Krystexxa Sequence
notes: covalent conjugate of uricase produced by a genetically modified strain of Escherichia coli and monomethoxypoly (ethylene glycol)
[1]; 20/21 pegloticase-treated patients with IRs
  patients with IRs in whom loss of response (return to SUA >6 mg/dL) preceded the first IR: 95%
[1]; pegloticase 8 mg every 2 weeks (biweekly dosing)
  incidence of infusion reactions: 26%
[1]; pegloticase 8 mg every-4-week dosing regimen
  incidence of infusion-related reactions: 40%
[1]; pre-marketing controlled clinical trials
  frequency of anaphylaxis: 6.5%
[2]
  plasma urate concentration (pUAc) after dosing, mean±SD: 1.0±0.5 mg/dL
[3]; 7 of 65 patients
  patients with antibody titer exceeding 1:2430 at any time who maintained a response: 10.8%
[3]; 31 of 52 patients
  patients with antibody titers exceeding 1:2430 who developed IRs: 60%
[3]; 58/65
  patients who never had an antibody titer above 1:2430 (comparison for maintained response): 89.2%
[3]; second study
  participants with high antibody titers who maintained a response (serum urate <6 mg/dL): 1 of 52 participants
[4]; pegloticase 8 mg every 2 weeks, without MTX
  response rate (proportion of responders) during Month 6 in phase 3 studies: 43% and 43.5%
[4]; pegloticase alone
  proportion of patients maintaining therapeutic response at 6 months, previously reported: 42%
